The source of these data is US10428140B2, “Anti-EphA4 antibody” (EISAI R&D MANAGEMENT CO., LTD., priority 2015, dated 2019).

Numbering of substitutions follows the chain as printed.

The labels stand for the following.
B1: 88 (antibody, V domains shown)
VL: DIQMTQSPSSLSASVGDRVTITCRASENIYRNLAWYQQKPGKAPQLLLYAATNLADGVPSRFSGSGSGTDYTLTISSLQPEDFATYYCQHFWGTPWTFGQGTKVEIK
VH: QVQLVQSGSELKKPGASVKVSCKASGYTFTDYSMHWVRQAPGQGLKWMGWINTETGEPTYAQGFTGRFVFSLDTSVSTAYLQISSLKAEDTAVYYCARIPLYYYGSRYWYFDVWGQGTTVTVSS
modifications: constant regions without entry; synthetic humanized antibody light chain variable region sequence; synthetic humanized antibody heavy chain variable region sequence
B2: 89 (antibody, V domains shown)
VL: B1 VL
VH: B1 VH with V2I
modifications: constant regions without entry; synthetic humanized antibody light chain variable region sequence; synthetic humanized antibody heavy chain variable region sequence
B3: 91 (antibody, V domains shown)
VL: B1 VL
VH: B1 VH with Q62D, G63D, T65K
modifications: constant regions without entry; synthetic humanized antibody light chain variable region sequence; synthetic humanized antibody heavy chain variable region sequence
B4: 92 (antibody, V domains shown)
VL: B1 VL
VH: B1 VH with V2I, Q62D, G63D, T65K
modifications: constant regions without entry; synthetic humanized antibody light chain variable region sequence; synthetic humanized antibody heavy chain variable region sequence
B5: 90 (antibody, V domains shown)
VL: B1 VL
VH: B1 VH with K46E, Q62D, G63D, T65K
modifications: constant regions without entry; synthetic humanized antibody light chain variable region sequence; synthetic humanized antibody heavy chain variable region sequence

One assay deals with T1, human EphA8 (Homo sapiens, UniProt P29322).
T1 construct: a protein of the extracellular region of each human Eph receptor fused with the SEAP protein and the His tag; made in house; host or cells: Expi293F cells (culture supernatant)
T1 sequence (P29322 28-542 limits assumed): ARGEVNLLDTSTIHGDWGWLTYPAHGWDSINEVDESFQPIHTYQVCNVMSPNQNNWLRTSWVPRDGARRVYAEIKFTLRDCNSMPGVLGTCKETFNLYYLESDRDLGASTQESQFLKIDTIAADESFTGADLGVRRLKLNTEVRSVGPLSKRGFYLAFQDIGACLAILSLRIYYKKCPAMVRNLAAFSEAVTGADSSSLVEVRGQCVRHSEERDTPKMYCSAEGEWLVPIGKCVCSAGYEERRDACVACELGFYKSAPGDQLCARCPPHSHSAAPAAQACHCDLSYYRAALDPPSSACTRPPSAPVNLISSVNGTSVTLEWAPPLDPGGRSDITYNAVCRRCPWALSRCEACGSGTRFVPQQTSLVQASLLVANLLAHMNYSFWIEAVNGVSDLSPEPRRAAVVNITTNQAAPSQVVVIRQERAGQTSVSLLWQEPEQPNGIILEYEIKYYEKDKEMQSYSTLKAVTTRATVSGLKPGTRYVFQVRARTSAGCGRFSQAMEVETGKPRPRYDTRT
Briefly: Selectivity ELISA of humanized antibodies for human Eph receptor. The note with it: coated protein 1 nM. Format: binding. The method in brief:
(§1)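 Extracellular domains of human Eph receptors fused to SEAP-His were expressed in Expi293F cells for 5 days and captured from supernatant (1 nM final) on anti-His-coated plates. Humanized anti-EphA4 antibodies were incubated 1 h at room temperature, then HRP anti-IgG secondary, TMB substrate, and absorbance at 450 nm.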
In general terms: In an ELISA, binding on a coated surface is turned into a signal by an enzyme label.
With B1, the “hEphA8-SEAP-: absorbance at 450 nm, percentage with respect to hEphA4-SEAP-His as 100%” value is given as 6.2%.

On to B2, for which the “hEphA8-SEAP-: absorbance at 450 nm, percentage with respect to hEphA4-SEAP-His as 100%” value is listed as 5.7%.

For B3, the “hEphA8-SEAP-: absorbance at 450 nm, percentage with respect to hEphA4-SEAP-His as 100%” value is given as 6.2%.

Regarding B4, the “hEphA8-SEAP-: absorbance at 450 nm, percentage with respect to hEphA4-SEAP-His as 100%” value came to 6.7%.

B5: the “hEphA8-SEAP-: absorbance at 450 nm, percentage with respect to hEphA4-SEAP-His as 100%” value came out at 5.4%.

A further assay concerns the target T2, human EphA7 (Homo sapiens, UniProt Q15375).
T2 construct: a protein of the extracellular region of each human Eph receptor fused with the SEAP protein and the His tag; made in house; host or cells: Expi293F cells (culture supernatant)
T2 sequence (Q15375 28-555 limits assumed): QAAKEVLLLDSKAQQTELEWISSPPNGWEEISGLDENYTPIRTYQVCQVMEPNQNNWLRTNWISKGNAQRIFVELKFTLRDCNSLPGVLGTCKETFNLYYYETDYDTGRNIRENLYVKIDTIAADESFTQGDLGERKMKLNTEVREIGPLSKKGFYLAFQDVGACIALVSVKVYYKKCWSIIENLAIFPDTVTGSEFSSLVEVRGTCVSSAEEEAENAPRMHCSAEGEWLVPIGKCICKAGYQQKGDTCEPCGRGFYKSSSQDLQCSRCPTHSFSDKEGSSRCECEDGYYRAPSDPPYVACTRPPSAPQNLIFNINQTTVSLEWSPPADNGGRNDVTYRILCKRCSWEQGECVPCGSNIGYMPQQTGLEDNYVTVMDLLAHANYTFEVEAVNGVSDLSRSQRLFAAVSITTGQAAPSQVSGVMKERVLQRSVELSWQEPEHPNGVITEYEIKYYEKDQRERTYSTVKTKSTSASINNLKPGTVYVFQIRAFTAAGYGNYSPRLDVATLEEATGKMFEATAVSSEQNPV
Described as above. The class given is binding. Conditions: coated protein 1 nM. The method in brief:
as §1
B1: the “hEphA7-SEAP-: absorbance at 450 nm, percentage with respect to hEphA4-SEAP-His as 100%” value is recorded as 6.0%.

Consider B2, for which the “hEphA7-SEAP-: absorbance at 450 nm, percentage with respect to hEphA4-SEAP-His as 100%” value worked out at 5.4%.

Regarding B3, the “hEphA7-SEAP-: absorbance at 450 nm, percentage with respect to hEphA4-SEAP-His as 100%” value is given as 5.6%.

As for B4, the “hEphA7-SEAP-: absorbance at 450 nm, percentage with respect to hEphA4-SEAP-His as 100%” value is recorded as 6.4%.

For B5, the “hEphA7-SEAP-: absorbance at 450 nm, percentage with respect to hEphA4-SEAP-His as 100%” value is recorded as 4.9%.

The next assay has as its target T3, human EphA3 (Homo sapiens, UniProt P29320).
T3 construct: a protein of the extracellular region of each human Eph receptor fused with the SEAP protein and the His tag; made in house; host or cells: Expi293F cells (culture supernatant)
T3 sequence (P29320 21-541 limits assumed): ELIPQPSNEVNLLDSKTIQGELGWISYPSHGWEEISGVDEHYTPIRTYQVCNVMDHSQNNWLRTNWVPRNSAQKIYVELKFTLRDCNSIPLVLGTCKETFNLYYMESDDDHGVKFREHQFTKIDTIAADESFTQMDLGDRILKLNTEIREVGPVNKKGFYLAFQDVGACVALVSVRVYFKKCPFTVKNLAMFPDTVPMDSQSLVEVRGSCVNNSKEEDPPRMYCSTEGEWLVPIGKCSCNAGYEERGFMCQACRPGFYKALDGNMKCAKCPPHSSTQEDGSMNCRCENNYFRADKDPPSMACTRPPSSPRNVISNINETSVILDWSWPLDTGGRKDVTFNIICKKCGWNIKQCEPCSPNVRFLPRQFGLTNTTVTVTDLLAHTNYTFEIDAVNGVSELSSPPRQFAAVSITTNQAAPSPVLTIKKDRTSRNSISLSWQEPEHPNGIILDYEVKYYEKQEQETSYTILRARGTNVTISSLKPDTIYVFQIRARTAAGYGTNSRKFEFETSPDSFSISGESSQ
The assay is described as above. Conditions: coated protein 1 nM. The class given is binding. In a few lines:
as §1
For B1, the “hEphA3-SEAP-: absorbance at 450 nm, percentage with respect to hEphA4-SEAP-His as 100%” value is listed as 6.0%.

Take B2: the “hEphA3-SEAP-: absorbance at 450 nm, percentage with respect to hEphA4-SEAP-His as 100%” value was 5.8%.

Regarding B3, the “hEphA3-SEAP-: absorbance at 450 nm, percentage with respect to hEphA4-SEAP-His as 100%” value was 6.6%.

On to B4, for which the “hEphA3-SEAP-: absorbance at 450 nm, percentage with respect to hEphA4-SEAP-His as 100%” value was determined as 6.5%.

Turning to B5, the “hEphA3-SEAP-: absorbance at 450 nm, percentage with respect to hEphA4-SEAP-His as 100%” value is on record as 5.2%.
